Holding throughout (details): pH 6; 37 °C
Substrate in one data set: p-NP-C2
Substrate in another data set: p-NP-C4
Substrate in another data set: p-NP-C6
Substrate in another data set: p-NP-C8

B1: unnamed (protein)
chain: MSVTTPRRETSLLSRALRATAAAATAVVATVALAAPAQAANPYERGPNPTESMLEARSGPFSVSEERASRFGADGFGGGTIYYPRENNTYGAIAISPGYTGTQSSIAWLGERIASHGFVVIAIDTNTTLDQPDSRARQLNAALDYMLTDASSAVRNRIDASRLAVMGHSMGGGGTLRLASQRPDLKAAIPLTPWHLNKSWRDITVPTLIIGAEYDTIASVTLHSKPFYNSIPSPTDKAYLELDGASHFAPNITNKTIGMYSVAWLKRFVDEDTRYTQFLCPGPRTGLLSDVEEYRSTCPF
By Km is commonly meant the substrate concentration at which the rate is half of its maximum. As usually defined, the kcat is the number of substrate molecules converted per active site and unit of time at saturation. What is called kcat/Km is the second-order rate constant that governs catalysis at low substrate concentration. On to B1, for which the Km with p-NP-C2 came to 3220 µM; with p-NP-C4, 3410 µM; with p-NP-C6 it was 2370 µM; in the data set with p-NP-C8, 1870 µM. For the same protein, the kcat with p-NP-C2 turned out to be 2.06 s⁻¹; in the data set with p-NP-C4, 4.48 s⁻¹; with p-NP-C6, 3.28 s⁻¹; with p-NP-C8, 2.45 s⁻¹. The specificity constant (kcat/Km) with p-NP-C2 is 640 M⁻¹ s⁻¹; in the data set with p-NP-C4, 1310 M⁻¹ s⁻¹; with p-NP-C6, 1380 M⁻¹ s⁻¹; with p-NP-C8 it was 1310 M⁻¹ s⁻¹.

Source of the values: the PETadex activity labels (doi:10.1007/s00253-011-3781-6).
